Test results as given in US20170015742A1 (published 2017).
Substitutions are numbered along the chain they refer to. Names and notes keep the numbering of the source.

T1: recombinant cynomolgus PDGF-BB (cynomolgus monkey, UniProt P01127 82-190 (human entry), limits assumed)
T1 chain: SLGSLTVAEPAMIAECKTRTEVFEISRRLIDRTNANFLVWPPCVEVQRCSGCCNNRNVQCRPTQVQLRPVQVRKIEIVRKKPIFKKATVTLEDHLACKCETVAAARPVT

B1: 4G8.3-SL-9E8.4 (g) anti-VEGF-A/anti-PDGF-BB DVD-Ig (PR-1572105) (bispecific antibody, human IgG1, kappa, L234A L235A)
heavy: EVQLVQSGSELKKPGASVKVSCKASGYTFTNYGMYWVRQAPGQGLEWMGWINTETGKPTYADDFKGRFVFSLDTSVSTAYLQISSLKAEDTAVYYCARTNYYYRSYIFYFDYWGQGTMVTVSSASTKGPEVTLRESGPALVKPTQTLTLTCTFSGFSLSTYGMGVGWIRQPPGKALEWLANIWWDDDKYYNPSLKNRLTISKDTSKNQVVLTMTNMDPVDTATYYCARIESIGTTYSFDYWGQGTMVTVSSASTKGPSVFPLAPSSKSTSGGTAALGCLVKDYFPEPVTVSWNSGALTSGVHTFPAVLQSSGLYSLSSVVTVPSSSLGTQTYICNVNHKPSNTKVDKKVEPKSCDKTHTCPPCPAPEAAGGPSVFLFPPKPKDTLMISRTPEVTCVVVDVSHEDPEVKFNWYVDGVEVHNAKTKPREEQYNSTYRVVSVLTVLHQDWLNGKEYKCKVSNKALPAPIEKTISKAKGQPREPQVYTLPPSREEMTKNQVSLTCLVKGFYPSDIAVEWESNGQPENNYKTTPPVLDSDGSFFLYSKLTVDKSRWQQGNVFSCSVMHEALHNAYTQKSLSLSPGK
light: DTVLTQSPATLSLSPGERATLSCRASESVSTHMHWYQQKPGQAPRLLIYGASNLESGVPARFSGSGSGTDFTLTISSLEPEDFAVYFCQQSWNDPFTFGQGTKLEIKRTVAAPSVFIFPPEFVLTQSPGTLSLSPGERATLSCERSSGDIGDSYVSWYQQKPGQAPRLVIYADDQRPSGIPDRFSGSGSGTDFTLTISRLEPEDFAVYYCQSYDINIDIVFGGGTKVEIKRTVAAPSVFIFPPSDEQLKSGTASVVCLLNNFYPREAKVQWKVDNALQSGNSQESVTEQDSKDSTYSLSSTLTLSKADYEKHKVYACEVTHQGLSSPVTKSFNRGEC
B2: hVEGF 4G8.3-SL-hPDGF 9E8.4 [hu IgG1/k] mut(234, 235) H435A (PR-1569579) (bispecific antibody)
heavy: B1 heavy
light: B1 light with R231G
B3: 4G8.3-GS-9E8.4 (g) anti-VEGF-A/anti-PDGF-BB DVD-Ig (PR-1572102) (bispecific antibody, human IgG1, kappa, L234A L235A)
heavy: EVQLVQSGSELKKPGASVKVSCKASGYTFTNYGMYWVRQAPGQGLEWMGWINTETGKPTYADDFKGRFVFSLDTSVSTAYLQISSLKAEDTAVYYCARTNYYYRSYIFYFDYWGQGTMVTVSSGGGGSGGGGSEVTLRESGPALVKPTQTLTLTCTFSGFSLSTYGMGVGWIRQPPGKALEWLANIWWDDDKYYNPSLKNRLTISKDTSKNQVVLTMTNMDPVDTATYYCARIESIGTTYSFDYWGQGTMVTVSSASTKGPSVFPLAPSSKSTSGGTAALGCLVKDYFPEPVTVSWNSGALTSGVHTFPAVLQSSGLYSLSSVVTVPSSSLGTQTYICNVNHKPSNTKVDKKVEPKSCDKTHTCPPCPAPEAAGGPSVFLFPPKPKDTLMISRTPEVTCVVVDVSHEDPEVKFNWYVDGVEVHNAKTKPREEQYNSTYRVVSVLTVLHQDWLNGKEYKCKVSNKALPAPIEKTISKAKGQPREPQVYTLPPSREEMTKNQVSLTCLVKGFYPSDIAVEWESNGQPENNYKTTPPVLDSDGSFFLYSKLTVDKSRWQQGNVFSCSVMHEALHNAYTQKSLSLSPGK
light: DTVLTQSPATLSLSPGERATLSCRASESVSTHMHWYQQKPGQAPRLLIYGASNLESGVPARFSGSGSGTDFTLTISSLEPEDFAVYFCQQSWNDPFTFGQGTKLEIKRGGSGGGGSGEFVLTQSPGTLSLSPGERATLSCERSSGDIGDSYVSWYQQKPGQAPRLVIYADDQRPSGIPDRFSGSGSGTDFTLTISRLEPEDFAVYYCQSYDINIDIVFGGGTKVEIKRTVAAPSVFIFPPSDEQLKSGTASVVCLLNNFYPREAKVQWKVDNALQSGNSQESVTEQDSKDSTYSLSSTLTLSKADYEKHKVYACEVTHQGLSSPVTKSFNRGEC
B4: hVEGF 4G8.3-GS-hPDGF 9E8.4 [hu IgG1/k] mut(234, 235) H435A (PR-1569574) (bispecific antibody)
heavy: B3 heavy
light: B3 light with R228G

The binders below were run against recombinant human PDGF-BB (human, UniProt P01127 82-190) (assay: cell-based or functional assay).

Binder | Co-incubation Potency IC50 (nM) hPDGF-BB (NIH-3T3 proliferation, DVD-Ig pre-incubated with excess hVEGF165)
B1 | 0.047 nM
B2 | 0.038 nM
B3 | 0.051 nM
B4 | 0.032 nM

These binders were tested against recombinant rat PDGF-BB (rat, UniProt Q05028 74-182) (assay: cell-based or functional assay).
Sequence of recombinant rat PDGF-BB (Q05028 74-182 limits assumed): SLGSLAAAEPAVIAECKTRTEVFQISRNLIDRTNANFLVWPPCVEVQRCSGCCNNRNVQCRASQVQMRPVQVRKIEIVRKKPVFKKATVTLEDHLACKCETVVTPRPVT

Binder | Potency IC50 (nM) ratPDGF-BB (NIH-3T3 proliferation)
B1 | 1.3 nM
B2 | 0.994 nM
B3 | 2.2 nM
B4 | 1.51 nM

Each binder was assayed against recombinant murine PDGF-BB (mouse, UniProt P31240 82-190) (assay: cell-based or functional assay).
Sequence of recombinant murine PDGF-BB (P31240 82-190 limits assumed): as the sequence (Q05028 74-182 limits assumed) above, with V83I, V102I counted along it

Binder | Potency IC50 (nM) mPDGF-BB (NIH-3T3 proliferation)
B1 | 0.096 nM
B2 | 0.15 nM
B3 | 0.174 nM
B4 | 0.134 nM

Target: T1, recombinant cynomolgus PDGF-BB
Assay: cell-based or functional assay

Binder | Potency IC50 (nM) cynoPDGF-BB (NIH-3T3 proliferation)
B1 | 0.142 nM
B2 | 0.144 nM
B3 | 0.139 nM
B4 | 0.139 nM
